Reference: paper PMC8478808 (Stroke, 2021)

Biological target: T1, recombinant mouse CD200R1 Fc chimera (mouse, UniProt Q9ES57 26-238)
T1 sequence (looked up): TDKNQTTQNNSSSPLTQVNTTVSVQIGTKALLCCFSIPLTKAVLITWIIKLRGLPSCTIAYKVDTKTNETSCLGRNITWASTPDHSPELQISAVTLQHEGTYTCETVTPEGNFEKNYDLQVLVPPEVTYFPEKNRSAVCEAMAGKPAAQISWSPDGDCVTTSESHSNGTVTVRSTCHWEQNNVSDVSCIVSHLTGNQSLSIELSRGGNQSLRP
Experiment: ELISA

B1: biotinylated recombinant mouse CD200-Fc Chimera (carrier-free) (Fc fusion, UniProt O54901 31-232, looked up)
chain: QVEVVTQDERKALHTTASLRCSLKTSQEPLIVTWQKKKAVSPENMVTYSKTHGVVIQPAYKDRINVTELGLWNSSITFWNTTLEDEGCYMCLFNTFGSQKVSGTACLTLYVQPIVHLHYNYFEDHLNITCSATARPAPAISWKGTGTGIENSTESHFHSNGTTSVTSILRVKDPKTQVGKEVICQVLYLGNVIDYKQSLDKG
modifications: biotin (biotinylated; site not stated)
Q: Does B1 bind?
A: binds
